Measurements from paper PMC4538830.

Target: T1, full-length recombinant His tagged CTNNBL1 (human), Q8WYA6
T1 chain: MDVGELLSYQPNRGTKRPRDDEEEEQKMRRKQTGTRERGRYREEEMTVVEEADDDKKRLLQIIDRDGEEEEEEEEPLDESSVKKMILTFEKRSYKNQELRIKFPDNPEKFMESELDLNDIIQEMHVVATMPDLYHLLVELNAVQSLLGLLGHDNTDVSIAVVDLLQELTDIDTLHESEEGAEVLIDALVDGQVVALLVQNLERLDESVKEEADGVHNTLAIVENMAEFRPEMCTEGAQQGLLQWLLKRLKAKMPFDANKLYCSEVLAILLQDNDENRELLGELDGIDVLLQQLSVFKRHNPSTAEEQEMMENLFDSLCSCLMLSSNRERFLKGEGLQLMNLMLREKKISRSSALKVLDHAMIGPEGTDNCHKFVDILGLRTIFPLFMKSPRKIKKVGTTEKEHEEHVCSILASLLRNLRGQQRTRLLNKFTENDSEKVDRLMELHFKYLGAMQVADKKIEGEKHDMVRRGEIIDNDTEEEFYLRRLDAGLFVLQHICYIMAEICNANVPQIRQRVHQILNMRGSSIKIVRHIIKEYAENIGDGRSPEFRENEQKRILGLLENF
Assay: SEC-MALS; CTNNBL1 (full length or [77–563]) alone; also in high salt buffer (0.5 M NaCl) or with CWC15[80–229] added; Supplementary Figure S7
Details: remark: other sources report otherwise

B1: full-length recombinant His tagged CTNNBL1, Q8WYA6 1-563 (natural protein)
chain: MDVGELLSYQPNRGTKRPRDDEEEEQKMRRKQTGTRERGRYREEEMTVVEEADDDKKRLLQIIDRDGEEEEEEEEPLDESSVKKMILTFEKRSYKNQELRIKFPDNPEKFMESELDLNDIIQEMHVVATMPDLYHLLVELNAVQSLLGLLGHDNTDVSIAVVDLLQELTDIDTLHESEEGAEVLIDALVDGQVVALLVQNLERLDESVKEEADGVHNTLAIVENMAEFRPEMCTEGAQQGLLQWLLKRLKAKMPFDANKLYCSEVLAILLQDNDENRELLGELDGIDVLLQQLSVFKRHNPSTAEEQEMMENLFDSLCSCLMLSSNRERFLKGEGLQLMNLMLREKKISRSSALKVLDHAMIGPEGTDNCHKFVDILGLRTIFPLFMKSPRKIKKVGTTEKEHEEHVCSILASLLRNLRGQQRTRLLNKFTENDSEKVDRLMELHFKYLGAMQVADKKIEGEKHDMVRRGEIIDNDTEEEFYLRRLDAGLFVLQHICYIMAEICNANVPQIRQRVHQILNMRGSSIKIVRHIIKEYAENIGDGRSPEFRENEQKRILGLLENF
Binder B1 has a stoichiometry N of 3.
